Our source for the EC50 and Max effect/effect 1 µM values is patent US20250171562A1.

B1: CIgG4E3A1(G4S)3 (Fc fusion)
chain 1: GPPCPPCPAPEFLGGPSVFLFPPKPKDTLMISRTPEVTCVVVDVSQEDPEVQFNWYVDGVEVHNAKTKPREEQFNSTYRVVSVLTVLHQDWLNGKEYKCKVSNKGLPSSIEKTISKAKGQPREPQVYTLPPCQEEMTKNQVSLWCLVKGFYPSDIAVEWESNGQPENNYKTTPPVLDSDGSFFLYSRLTVDKSRWQEGNVFSCSVMHEALHNHYTQKSLSLSLGKGGGGSGGGGSGGGGSDVQLQESGGGLVQAGGSLRLACAASGRTLSSYVVSWFRQAPGKERKFVAAITWSGLSTTYLDSVQGRFTISRDNTKDTVYLQMNSLKPQDTAIYYCAAGPNIPSILRTRESEYAYWGQGTQVTVS
chain 2: GPPCPPCPAPEFLGGPSVFLFPPKPKDTLMISRTPEVTCVVVDVSQEDPEVQFNWYVDGVEVHNAKTKPREEQFNSTYRVVSVLTVLHQDWLNGKEYKCKVSNKGLPSSIEKTISKAKGQPREPQVCTLPPSQEEMTKNQVSLSCAVKGFYPSDIAVEWESNGQPENNYKTTPPVLDSDGSFFLVSRLTVDKSRWQEGNVFSCSVMHEALHNHYTQKSLSLSLGKGGGGSGGGGSGGGGSEVQLLESGGGLVQPGGSLRLSCAASGFTFGNYDMAWVRQAPGKRPEWVSSIDTGGDITHYADSVKGRFTISRDNAKNTLYLQMNSLRPEDTAVYWCATDEEYALGPNEFDYYGQGTLVTVSS
B2: CIgG4E3A1(G4S)2 (Fc fusion)
chain 1: GPPCPPCPAPEFLGGPSVFLFPPKPKDTLMISRTPEVTCVVVDVSQEDPEVQFNWYVDGVEVHNAKTKPREEQFNSTYRVVSVLTVLHQDWLNGKEYKCKVSNKGLPSSIEKTISKAKGQPREPQVYTLPPCQEEMTKNQVSLWCLVKGFYPSDIAVEWESNGQPENNYKTTPPVLDSDGSFFLYSRLTVDKSRWQEGNVFSCSVMHEALHNHYTQKSLSLSLGKGGGGSGGGGSDVQLQESGGGLVQAGGSLRLACAASGRTLSSYVVSWFRQAPGKERKFVAAITWSGLSTTYLDSVQGRFTISRDNTKDTVYLQMNSLKPQDTAIYYCAAGPNIPSILRTRESEYAYWGQGTQVTVS
chain 2: GPPCPPCPAPEFLGGPSVFLFPPKPKDTLMISRTPEVTCVVVDVSQEDPEVQFNWYVDGVEVHNAKTKPREEQFNSTYRVVSVLTVLHQDWLNGKEYKCKVSNKGLPSSIEKTISKAKGQPREPQVCTLPPSQEEMTKNQVSLSCAVKGFYPSDIAVEWESNGQPENNYKTTPPVLDSDGSFFLVSRLTVDKSRWQEGNVFSCSVMHEALHNHYTQKSLSLSLGKGGGGSGGGGSEVQLLESGGGLVQPGGSLRLSCAASGFTFGNYDMAWVRQAPGKRPEWVSSIDTGGDITHYADSVKGRFTISRDNAKNTLYLQMNSLRPEDTAVYWCATDEEYALGPNEFDYYGQGTLVTVSS
B3: NIgG4E4A1(RS) (Fc fusion)
chain 1: DVQLQESGGGLVQPGGSLRLSCAASGFRFSNYAMRWYRQAPGKEREFVARISSTGFITRYTASVRDRFTISRDNDKNMMYLQLNKLTPQDTAHYYCNAESTDYWGQGTQVTVSRSGPPCPPCPAPEFLGGPSVFLFPPKPKDTLMISRTPEVTCVVVDVSQEDPEVQFNWYVDGVEVHNAKTKPREEQFNSTYRVVSVLTVLHQDWLNGKEYKCKVSNKGLPSSIEKTISKAKGQPREPQVYTLPPCQEEMTKNQVSLWCLVKGFYPSDIAVEWESNGQPENNYKTTPPVLDSDGSFFLYSRLTVDKSRWQEGNVFSCSVMHEALHNHYTQKSLSLSLGK
chain 2: EVQLLESGGGLVQPGGSLRLSCAASGFTFGNYDMAWVRQAPGKRPEWVSSIDTGGDITHYADSVKGRFTISRDNAKNTLYLQMNSLRPEDTAVYWCATDEEYALGPNEFDYYGQGTLVTVSSRSGPPCPPCPAPEFLGGPSVFLFPPKPKDTLMISRTPEVTCVVVDVSQEDPEVQFNWYVDGVEVHNAKTKPREEQFNSTYRVVSVLTVLHQDWLNGKEYKCKVSNKGLPSSIEKTISKAKGQPREPQVCTLPPSQEEMTKNQVSLSCAVKGFYPSDIAVEWESNGQPENNYKTTPPVLDSDGSFFLVSRLTVDKSRWQEGNVFSCSVMHEALHNHYTQKSLSLSLGK
B4: CIgG4E3A1(RS) (Fc fusion)
chain 1: GPPCPPCPAPEFLGGPSVFLFPPKPKDTLMISRTPEVTCVVVDVSQEDPEVQFNWYVDGVEVHNAKTKPREEQFNSTYRVVSVLTVLHQDWLNGKEYKCKVSNKGLPSSIEKTISKAKGQPREPQVYTLPPCQEEMTKNQVSLWCLVKGFYPSDIAVEWESNGQPENNYKTTPPVLDSDGSFFLYSRLTVDKSRWQEGNVFSCSVMHEALHNHYTQKSLSLSLGKRSDVQLQESGGGLVQAGGSLRLACAASGRTLSSYVVSWFRQAPGKERKFVAAITWSGLSTTYLDSVQGRFTISRDNTKDTVYLQMNSLKPQDTAIYYCAAGPNIPSILRTRESEYAYWGQGTQVTVS
chain 2: GPPCPPCPAPEFLGGPSVFLFPPKPKDTLMISRTPEVTCVVVDVSQEDPEVQFNWYVDGVEVHNAKTKPREEQFNSTYRVVSVLTVLHQDWLNGKEYKCKVSNKGLPSSIEKTISKAKGQPREPQVCTLPPSQEEMTKNQVSLSCAVKGFYPSDIAVEWESNGQPENNYKTTPPVLDSDGSFFLVSRLTVDKSRWQEGNVFSCSVMHEALHNHYTQKSLSLSLGKRSEVQLLESGGGLVQPGGSLRLSCAASGFTFGNYDMAWVRQAPGKRPEWVSSIDTGGDITHYADSVKGRFTISRDNAKNTLYLQMNSLRPEDTAVYWCATDEEYALGPNEFDYYGQGTLVTVSS
B5: NIgG4E4A1(G4S)1 (Fc fusion)
chain 1: DVQLQESGGGLVQPGGSLRLSCAASGFRFSNYAMRWYRQAPGKEREFVARISSTGFITRYTASVRDRFTISRDNDKNMMYLQLNKLTPQDTAHYYCNAESTDYWGQGTQVTVSGGGGSGPPCPPCPAPEFLGGPSVFLFPPKPKDTLMISRTPEVTCVVVDVSQEDPEVQFNWYVDGVEVHNAKTKPREEQFNSTYRVVSVLTVLHQDWLNGKEYKCKVSNKGLPSSIEKTISKAKGQPREPQVYTLPPCQEEMTKNQVSLWCLVKGFYPSDIAVEWESNGQPENNYKTTPPVLDSDGSFFLYSRLTVDKSRWQEGNVFSCSVMHEALHNHYTQKSLSLSLGK
chain 2: EVQLLESGGGLVQPGGSLRLSCAASGFTFGNYDMAWVRQAPGKRPEWVSSIDTGGDITHYADSVKGRFTISRDNAKNTLYLQMNSLRPEDTAVYWCATDEEYALGPNEFDYYGQGTLVTVSSGGGGSGPPCPPCPAPEFLGGPSVFLFPPKPKDTLMISRTPEVTCVVVDVSQEDPEVQFNWYVDGVEVHNAKTKPREEQFNSTYRVVSVLTVLHQDWLNGKEYKCKVSNKGLPSSIEKTISKAKGQPREPQVCTLPPSQEEMTKNQVSLSCAVKGFYPSDIAVEWESNGQPENNYKTTPPVLDSDGSFFLVSRLTVDKSRWQEGNVFSCSVMHEALHNHYTQKSLSLSLGK
B6: NIgG4E3A1(G4S)3 (Fc fusion)
chain 1: DVQLQESGGGLVQAGGSLRLACAASGRTLSSYVVSWFRQAPGKERKFVAAITWSGLSTTYLDSVQGRFTISRDNTKDTVYLQMNSLKPQDTAIYYCAAGPNIPSILRTRESEYAYWGQGTQVTVSGGGGSGGGGSGGGGSGPPCPPCPAPEFLGGPSVFLFPPKPKDTLMISRTPEVTCVVVDVSQEDPEVQFNWYVDGVEVHNAKTKPREEQFNSTYRVVSVLTVLHQDWLNGKEYKCKVSNKGLPSSIEKTISKAKGQPREPQVYTLPPCQEEMTKNQVSLWCLVKGFYPSDIAVEWESNGQPENNYKTTPPVLDSDGSFFLYSRLTVDKSRWQEGNVFSCSVMHEALHNHYTQKSLSLSLGK
chain 2: EVQLLESGGGLVQPGGSLRLSCAASGFTFGNYDMAWVRQAPGKRPEWVSSIDTGGDITHYADSVKGRFTISRDNAKNTLYLQMNSLRPEDTAVYWCATDEEYALGPNEFDYYGQGTLVTVSSGGGGSGGGGSGGGGSGPPCPPCPAPEFLGGPSVFLFPPKPKDTLMISRTPEVTCVVVDVSQEDPEVQFNWYVDGVEVHNAKTKPREEQFNSTYRVVSVLTVLHQDWLNGKEYKCKVSNKGLPSSIEKTISKAKGQPREPQVCTLPPSQEEMTKNQVSLSCAVKGFYPSDIAVEWESNGQPENNYKTTPPVLDSDGSFFLVSRLTVDKSRWQEGNVFSCSVMHEALHNHYTQKSLSLSLGK
B7: NIgG4E3A1(G4S)2 (Fc fusion)
chain 1: DVQLQESGGGLVQAGGSLRLACAASGRTLSSYVVSWFRQAPGKERKFVAAITWSGLSTTYLDSVQGRFTISRDNTKDTVYLQMNSLKPQDTAIYYCAAGPNIPSILRTRESEYAYWGQGTQVTVSGGGGSGGGGSGPPCPPCPAPEFLGGPSVFLFPPKPKDTLMISRTPEVTCVVVDVSQEDPEVQFNWYVDGVEVHNAKTKPREEQFNSTYRVVSVLTVLHQDWLNGKEYKCKVSNKGLPSSIEKTISKAKGQPREPQVYTLPPCQEEMTKNQVSLWCLVKGFYPSDIAVEWESNGQPENNYKTTPPVLDSDGSFFLYSRLTVDKSRWQEGNVFSCSVMHEALHNHYTQKSLSLSLGK
chain 2: EVQLLESGGGLVQPGGSLRLSCAASGFTFGNYDMAWVRQAPGKRPEWVSSIDTGGDITHYADSVKGRFTISRDNAKNTLYLQMNSLRPEDTAVYWCATDEEYALGPNEFDYYGQGTLVTVSSGGGGSGGGGSGPPCPPCPAPEFLGGPSVFLFPPKPKDTLMISRTPEVTCVVVDVSQEDPEVQFNWYVDGVEVHNAKTKPREEQFNSTYRVVSVLTVLHQDWLNGKEYKCKVSNKGLPSSIEKTISKAKGQPREPQVCTLPPSQEEMTKNQVSLSCAVKGFYPSDIAVEWESNGQPENNYKTTPPVLDSDGSFFLVSRLTVDKSRWQEGNVFSCSVMHEALHNHYTQKSLSLSLGK
B8: CIgG4E3A1(G4S)1 (Fc fusion)
chain 1: GPPCPPCPAPEFLGGPSVFLFPPKPKDTLMISRTPEVTCVVVDVSQEDPEVQFNWYVDGVEVHNAKTKPREEQFNSTYRVVSVLTVLHQDWLNGKEYKCKVSNKGLPSSIEKTISKAKGQPREPQVYTLPPCQEEMTKNQVSLWCLVKGFYPSDIAVEWESNGQPENNYKTTPPVLDSDGSFFLYSRLTVDKSRWQEGNVFSCSVMHEALHNHYTQKSLSLSLGKGGGGSDVQLQESGGGLVQAGGSLRLACAASGRTLSSYVVSWFRQAPGKERKFVAAITWSGLSTTYLDSVQGRFTISRDNTKDTVYLQMNSLKPQDTAIYYCAAGPNIPSILRTRESEYAYWGQGTQVTVS
chain 2: GPPCPPCPAPEFLGGPSVFLFPPKPKDTLMISRTPEVTCVVVDVSQEDPEVQFNWYVDGVEVHNAKTKPREEQFNSTYRVVSVLTVLHQDWLNGKEYKCKVSNKGLPSSIEKTISKAKGQPREPQVCTLPPSQEEMTKNQVSLSCAVKGFYPSDIAVEWESNGQPENNYKTTPPVLDSDGSFFLVSRLTVDKSRWQEGNVFSCSVMHEALHNHYTQKSLSLSLGKGGGGSEVQLLESGGGLVQPGGSLRLSCAASGFTFGNYDMAWVRQAPGKRPEWVSSIDTGGDITHYADSVKGRFTISRDNAKNTLYLQMNSLRPEDTAVYWCATDEEYALGPNEFDYYGQGTLVTVSS

Chain of mixture of three Der p 2 specific recombinant human IgE clones H10, H12, P4E (human) (P01854 other isoform, or with tags, fused parts or gaps): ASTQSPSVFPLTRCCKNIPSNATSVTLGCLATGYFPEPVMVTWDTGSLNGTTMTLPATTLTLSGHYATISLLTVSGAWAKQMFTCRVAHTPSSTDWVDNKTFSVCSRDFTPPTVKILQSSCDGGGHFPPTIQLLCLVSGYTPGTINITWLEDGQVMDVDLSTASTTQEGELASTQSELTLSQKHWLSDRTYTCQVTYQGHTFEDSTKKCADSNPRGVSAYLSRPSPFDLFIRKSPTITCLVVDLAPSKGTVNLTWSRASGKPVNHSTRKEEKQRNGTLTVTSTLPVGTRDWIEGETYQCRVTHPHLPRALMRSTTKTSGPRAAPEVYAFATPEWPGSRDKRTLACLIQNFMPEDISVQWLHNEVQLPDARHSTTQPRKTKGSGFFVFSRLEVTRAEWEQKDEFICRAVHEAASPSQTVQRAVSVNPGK

This experiment addresses mixture of three Der p 2 specific recombinant human IgE clones H10, H12, P4E (human) (UniProt P01854). The experiment is described as follows: RBL-SX38 IgE displacement, FACS.
Consider B1, for which the EC50 (in general, the concentration at which the effect is half-maximal) amounted to 162 nM and the Max effect/effect 1 µM came to 73%.

In the case of B2, the EC50 turned out to be 172 nM and the Max effect/effect 1 µM came to 94%.

Regarding B3, the EC50 stood at 6.2 nM and the Max effect/effect 1 µM worked out at 90%.

Take B4: the Max effect/effect 1 µM stood at 21%.

On to B5, for which the 50% effective concentration (EC50) is 17 nM and the Max effect/effect 1 µM turned out to be 97%.

For B6, the EC50 worked out at 2.2 nM and the Max effect/effect 1 µM came to 97%.

Turning to B7, the concentration for a half-maximal effect (EC50) worked out at 2.1 nM and the Max effect/effect 1 µM turned out to be 99%.

As for B8, the 50% effective concentration (EC50) was 277 nM and the Max effect/effect 1 µM was found to be 76%.
